This note sets out measurements from the supplement of paper PMC12042874.

± gives the uncertainty stated by the source.

The series in a line: amyloid nucleation score (Sup35N fusion, yeast selection) (log enrichment); library NNK2; higher = more nucleation; inactive = no reads after selection. A digest of the protocol: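 Sup35N fusions to peptides of 20 random codons were expressed in psi-negative yeast, induced 24 hours with 100 μM copper sulfate, and grown 7 days at 30°C on medium lacking adenine and uracil. Input and output plasmid inserts were sequenced by Illumina. The nucleation score is the DiMSum log enrichment of output over input reads, centred on the mode score of non-aggregating sequences. Sequences with under 100 input reads were excluded.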
For TYFAEIMNTPLRPSARHEAR, the amyloid nucleation score is 1.72 ± 0.33. For the substance NVGYWYCLD, the amyloid nucleation score turned out to be 8.808 ± 0.033. The same measure for IRVTCLLGL: -0.055 ± 0.2; for GMIFFHGNSLGVTDDSHK: 0.811 ± 0.82. For the substance LTIYRSHDVRM, the amyloid nucleation score came out at 3.88 ± 0.043.

For TWQEAHNSQLGGFSIPEKN, the amyloid nucleation score amounted to 0.155 ± 1.1. The value for KCLCAGFLF was -0.577 ± 0.38.

Substance GVLNAVHCQVYWL yielded an amyloid nucleation score of 7.869 ± 0.035. For the substance EILYYWPVNVICRKSVKDCI, the amyloid nucleation score is 0.434 ± 0.66. The same measure for MHCYSIGFRLMRSANMLSCY: 0.394 ± 0.33; for PRNRQRSNSTDCGHLITYWD: 0.205 ± 0.62.

LLGVFTETKGNP returned an amyloid nucleation score of 2.53 ± 0.11. For the substance WYAHGLISVCFVCAGLESLG, the amyloid nucleation score was -0.251 ± 0.76.

As for RGYDLVGSIIFSMQKRLRKK, the amyloid nucleation score was -1.24 ± 1.1. The value for FEIDCIKIVCKASYHGLSGT was 2.99 ± 0.1; that for TCDCIIARFDALTSISRLAL was 1.02 ± 0.41. AIDAFFLSV showed an amyloid nucleation score of -0.191 ± 0.26. The same measure for LAMTAAKIMDRFNGCSLKSF: 0.648 ± 0.74; for LIRFTLMSTFEITIMSFRCV: 0.934 ± 0.2. On to NLGTWD, for which the amyloid nucleation score is -0.156 ± 0.28.

EWHVWVCIWGCGIEAWMLSW showed an amyloid nucleation score of 1.84 ± 0.16. The value for HTHTWT was 1.31 ± 0.38. The value for SRKNRSRVSTTISR was -0.731 ± 0.3; that for WRFWLPAKWISRGSFIVYWI was -0.717 ± 0.32; that for KVFIANTIGHWCMNQQIMML was 0.217 ± 0.36.

With HCLGRLVASWNPQWEFHRRT, the amyloid nucleation score stood at 0.103 ± 0.38.

Consider LRSCKALGGGVTRPTGYS, for which the amyloid nucleation score turned out to be 0.709 ± 0.47. The value for RSPDKDSMQTTLLIRRVTSW was 1.14 ± 0.48; that for QVLISFG was -2.41 ± 1.1; that for CPRLCLMLLPFKTCMIGTRE was 0.57 ± 0.81. The same measure for LPVREALMRKWMVQLLVFVS: 2.05 ± 0.1; for FWRKVCVDDRTT: -0.121 ± 0.43; for HQYGLNIKCFKCAILSKSGT: -0.562 ± 1.

For LLTLFG, the amyloid nucleation score is -0.087 ± 0.56.

In turn, IARVDLKFMESIRSHMV yielded an amyloid nucleation score of 1.71 ± 0.56.

Substance QTMMTTRKCSPLRLVLSQRL yielded an amyloid nucleation score of -0.161 ± 1.1. The value for YNIWL was 2.49 ± 0.12; that for SVFLSKDIKGVNQCGGLWLS was 0.296 ± 0.25; that for TFMKGTVIT was 0.759 ± 0.74.

As to DFSLGLWRVTDIDYVSNVSL, the amyloid nucleation score was found to be 0.151 ± 0.8. As to FLKTKSFMVKMTGVNNQVFL, the amyloid nucleation score was 5.96 ± 0.071. The value for TSHVGL was -1.39 ± 0.49; that for PSSDGIRITSDGILMSVDNG was 0.918 ± 0.58. In the case of RLPHSVSALSLKILGGARAR, the amyloid nucleation score is 0.02 ± 0.56. Regarding GISSSHPRTNGHRQYLNFGV, the amyloid nucleation score is -0.627 ± 0.61.

In turn, RFPVGRLFWQEFRYSDQGVA showed an amyloid nucleation score of 1.17 ± 0.23. With RVFNLNKKMNFSTISG, the amyloid nucleation score is -0.942 ± 1.1. Substance WRLNEDHNRYDLIPGVRGLG had an amyloid nucleation score of 0.519 ± 0.56.

As to LHCYCDLDDALTNPPAHHSR, the amyloid nucleation score was found to be 0.605 ± 0.34.

VCVFMDFHLYMMSARQSTKD came in with an amyloid nucleation score of 7.894 ± 0.042. The value for IRWSVGSGKIRGSFLLLMDL was -0.432 ± 1.1. The same measure for NMWTFRSIMIPALFYEIFIA: -1.75 ± 0.54; for YLTSINLRVGGSWLCNNGRM: 1.96 ± 0.14; for SLLTCLSGMHGWVSIT: -0.13 ± 0.27. As for KYFMVVLVNIIFLYPGL, the amyloid nucleation score result was “inactive”.

The substance SCSVCWSLSMV returned an amyloid nucleation score of 1.31 ± 0.36. The value for FPENDWL was -0.552 ± 0.44; that for CIVCFVFMLKRALLLHFCIA was -0.81 ± 1; that for VSLHKRPTWLPVCIARYGWS was 0.333 ± 0.24. The same measure for YVGHRTMMKFTIIVIYYMYP: -1.5 ± 1.

Consider RANGSSYEREVA, for which the amyloid nucleation score was 0.819 ± 0.47. The same measure for IMRVMPICRFVII: 1.25 ± 0.12; for RLENMCMASPR: 0.464 ± 0.46; for WTFEFLIRVLEWRSVMFFAG: “inactive”.

The substance TVNLGSYSEMRFLLLQEQAS came in with an amyloid nucleation score of -0.747 ± 0.63. The value for PVALLAIRMNIDVVN was -0.353 ± 0.49. The value for VDSYHGYTDRNALSFLCSLV was 0.342 ± 0.23; that for GKLHIRIWQDSVWLGDLRL was 3.82 ± 0.063; that for MSLGMCFKWRHRNIVYNLSA was -0.408 ± 0.63. The value for FKFVYNVKCPYWWTLSFMEV was 0.75 ± 0.47; that for RVDKMMYSRLPCLVAV was 0.466 ± 0.49; that for LFWIGWLRRRKKGIGVANKG was 0.001 ± 0.49. The substance WRDTC displayed an amyloid nucleation score of -0.086 ± 0.49. The value for ANSAYCIGLCLGNCFMSYFC was 7.452 ± 0.043; that for RVMMLEGQASNMAYEEL was 0.274 ± 1.1; that for RCLPSIFDPMRVTRVLPELY was -0.017 ± 1. The same measure for KSHLVF: -0.312 ± 0.65; for RDVFDMSSPTIAQCNVVRGM: -0.448 ± 0.32; for IRKCICSWCVECILRNPAKA: -0.434 ± 0.4. The same measure for ILLLFVPSDFRNICFE: -0.532 ± 0.29; for MFNYINYYSYHFEFSKCFVR: 2.26 ± 0.14. Turning to CNLCSDP, the amyloid nucleation score result was “inactive”. The value for IKEFYISQNFVNSHLRLANM was -1.51 ± 1.1; that for FCSCWNSEFNENSFVWRNIL was 5.35 ± 0.058. The same measure for LSSGIMSGCEGGAWCCH: 0.605 ± 0.66; for CIGYKLLLGELLAP: 0.137 ± 0.5. As to NLTMYILRNYTCIMYYIKVC, the amyloid nucleation score was -0.208 ± 1. The same measure for HDMRHYKGSPYYLNYWYGDG: -0.623 ± 0.55. The value for RSGYGWTVLFERLSKHCEFK was -0.301 ± 0.39; that for YRMLSIKCGM was -0.707 ± 0.79. The value for FTRTWLCIHAEYARCLGTCV was 5.05 ± 0.053; that for GHVHQNLMRLVNFSKKSTSL was 4.95 ± 0.055. Consider TDYYAMWFHSIGRFSG, for which the amyloid nucleation score was -1.33 ± 0.38. The value for SERTLNLRSKSSPHPCST was 3.86 ± 0.12.

As to TMGNHFVFVS, the amyloid nucleation score entry was “inactive”. The value for YDEKMRVHDKYKTQPLERGR was 4.37 ± 0.1. The value for DWHYIEKWT was -0.12 ± 0.49; that for VSRGNAGWS was 3.6 ± 0.075. SVKYFLDSVDVWIDIISAFF came in with an amyloid nucleation score of 0.256 ± 0.55. The value for TQYFYIMLQ was 5.16 ± 0.071.

Take FSGSIVIAGGIVSMRDPGLR: the amyloid nucleation score is -0.596 ± 0.79. The same measure for IPTTQLAHCGQVACPARVVP: 1.23 ± 0.28; for IFPLDQLQIFWLSLTMTMQL: -0.829 ± 1.1; for FKRPDSKIVCDVNVKGALKE: “inactive”. The same measure for YICMLLDKPRFLSRSSRSLV: “inactive”; for SGYQGKYRSMSPRFKFSWVG: -0.392 ± 0.63.

On to LNVITSVTLRVDWRAVWRKY, for which the amyloid nucleation score turned out to be 0.134 ± 0.53. The same measure for SMSSTSFSQWSMAWLEGRMA: 2.93 ± 0.078; for HCGTHVYYGAIWV: -0.483 ± 0.27. The value for IIVYFVAFASTGARASK was -0.951 ± 0.54. The same measure for LASTVNIEMVSVHRDWCVWM: 5.326 ± 0.029; for SIARHFRGFV: 0.734 ± 0.47. LNTLSESLEKNSGTLCWAKR: the amyloid nucleation score result is “inactive”.

Regarding VAVFLNNA, the amyloid nucleation score entry was “inactive”. The same measure for VYYSGALFQNVLYLLSFMVV: -0.501 ± 1.1; for WLTYRCSVYYFYVEYWKSVY: 0.256 ± 0.74; for LNRVGPLVILPIRHLQSTSL: 0.65 ± 0.23. The value for LCIGYFLV was -1.62 ± 1.1; that for FCCTLAIFSL was 7.594 ± 0.024. The value for VIDVKFVGYILQVYVGVSFG was 0.026 ± 1.1; that for HISLVSCHEM was -0.213 ± 1.1; that for GSVVHLQSCNISLIAYGLHG was 8.298 ± 0.054. WCSIDLSHFVCYNLGYMR: the amyloid nucleation score came out at 7.395 ± 0.052.

As to LAIVKGLVKSFLCYDFSGKV, the amyloid nucleation score result was “inactive”. The same measure for GLWDSRMAFSRTS: 3.57 ± 0.078; for PRIFFYVNLFLRHWPEIKML: -2.08 ± 1.1. Turning to IKTSDYNHFRYWSKRPYVSW, the amyloid nucleation score was -0.738 ± 1.1. The value for GVSVSSLSACPKEDFGSFSE was 0.051 ± 0.63; that for CLKGKYESYNADVNAHYSLA was 0.13 ± 0.45; that for RLSPPLCVLIYIMRYLNGYW was 0.42 ± 0.66.

Substance VDNNVGSWPLWP displayed an amyloid nucleation score of -0.08 ± 1.

For the substance DPFSHGEASEWAHLIVSTCT, the amyloid nucleation score amounted to 0.408 ± 0.22. The value for FCLFFLASQIIVMGVTTYTG was -0.313 ± 0.76. The value for YKVLSISLIVDTFARLYYAL was -0.921 ± 0.54; that for IYRKSICYSFVWALFEVAEW was -0.398 ± 0.35.

In the case of VKSRRLTYNS, the amyloid nucleation score came out at 0.192 ± 0.79. EMSPSLMELFHACVVLVRFG: the amyloid nucleation score was -0.051 ± 0.37. The same measure for TAHYLFTWTLSNVILVCGYD: -0.867 ± 0.48; for KLMWERTFVCSRKRFKTYYK: -0.359 ± 0.41. The same measure for LSWRFFLSCWN: “inactive”.
